The source of these data is patent publication US20190169313A1.

For the test, the target named is D-dimer. Description: detection of D-dimer; format not described.

In the case of “mouse monoclonal antibody AB424 directed to GGEL (Abcam, catalog number AB424)”, the titer worked out at 0.6 µg/mL.
